Publication doi:10.1101/2021.04.01.437949 (bioRxiv, 2021)

B1: Tail-GFP (Xrn1 Tail, amino acids 351-521, fused to GFP) (domain or fragment, S. cerevisiae, UniProt P22147 351-521, looked up)
chain: EKDDIDVEWFNKQLENISLEGERKRQRVGKKLLVKQQKKLIGSIKPWLMEQLQEKLSPDLPDEEIPTLELPKDLDMKDHLEFLKEFAFDLGLFITHSKSKGSYSLKMDLDSINPDETEEEFQNRVNSIRKTIKKYQNAIIVEDKEELETEKTIYNERFERWKHEYYHDKLK
B2: recombinant Kap120-6xHis (natural protein, S. cerevisiae, UniProt Q02932 1-1032, looked up)
chain: MASSLNELNLVQVLEQASNPQHIRSDVQKLAEQQLRQWETQAGFHYLLQSIYLNLSNSLQIRWLAVIQFKNGVDKYWRSTRINAIPKDEKASIRGRLFEMIDEQNNQLCIQNAQASARIARLDFPVEWPTLFEDLENLLNDEIIRKDSVKIYNILMHINQIVKVLGTARIGRCRPAMQSKVPLILPLIVRIYLQSFEEWTTSSNLNYEDLSSLQVSYLALKVLRRIICEGYDRPQTDQSVCDFIKLSVSHFEMLISNHENFKKFDIYEKFIKCLGKLYFNLVTGSPANFILLPCSTQILITYTRLIFDKAPKVYRENSDVTGDFWEQTAIRGLLILKRVINFIHKKGAITLKARSDKLTIDASINKINTEFLNENLITRLVDTLMEWYLRLRPTELENWFMDPEEWINEQMATSYEYQIRPCAENVFQDLMNTFSELLVPYLLKKIENDASKLSNSLDDFLRKDAIYASFQLSASAVSEMVDFDRLLIQVFLPEATNTNISGDELRIIRRRVALIINEWSTVKCSEESKSLCYKLFTNFLTDEDDKVVLLTTVQTVRTMVDDWNFNKDTFQPFLTENVHLLLRKILPSVSLTETRLYVLNTLSDIIIQTKPLISRDLLVEILQIIPNLWEIATNNASEAILANALLRLLRNLVSSLGSQSHLTWDIAIPVVALACDPSSMQYQLLSEDGYELWGMLLQNFSSHDQEFDDKFVELVPFLKYGIETHTEILPTLLEIIKSYALILNPVDFFSNNTFQDIFKQMSKYLLKLREDSFQLVLEIWEILILSNESDYENLLLQKFYETGVLSALFDAIFLEEAPSSYLCSQIIQIIARISYVNPDALMTFLATYHDNLPTSNENARMPESIRKIVSKDQTYDSVVNKLLTGWIVCFRDIFDPKFKKVHILGISSLLRTGLVPILTEFSSIASLWIEMLEEINETNRGDCEKYHLNDIVTEQSIAFHPLTAEQLRYHQLCKNNDPVHNISLKDFISQSMEYLESHLGVERYQEFLKTINPSLLENLQMFLSIQPQEARP
B3: Dhh1 (natural protein, S. cerevisiae (endogenous in yeast), UniProt P39517 1-506, looked up)
chain: MGSINNNFNTNNNSNTDLDRDWKTALNIPKKDTRPQTDDVLNTKGNTFEDFYLKRELLMGIFEAGFEKPSPIQEEAIPVAITGRDILARAKNGTGKTAAFVIPTLEKVKPKLNKIQALIMVPTRELALQTSQVVRTLGKHCGISCMVTTGGTNLRDDILRLNETVHILVGTPGRVLDLASRKVADLSDCSLFIMDEADKMLSRDFKTIIEQILSFLPPTHQSLLFSATFPLTVKEFMVKHLHKPYEINLMEELTLKGITQYYAFVEERQKLHCLNTLFSKLQINQAIIFCNSTNRVELLAKKITDLGYSCYYSHARMKQQERNKVFHEFRQGKVRTLVCSDLLTRGIDIQAVNVVINFDFPKTAETYLHRIGRSGRFGHLGLAINLINWNDRFNLYKIEQELGTEIAAIPATIDKSLYVAENDETVPVPFPIEQQSYHQQAIPQQQLPSQQQFAIPPQQHHPQFMVPPSHQQQQAYPPPQMPSQQGYPPQQEHFMAMPPGQSQPQY
B4: Pat1 (natural protein, S. cerevisiae (endogenous in yeast), UniProt P25644 1-796, looked up)
chain: MSFFGLENSGNARDGPLDFEESYKGYGEHELEENDYLNDETFGDNVQVGTDFDFGNPHSSGSSGNAIGGNGVGATARSYVAATAEGISGPRTDGTAAAGPLDLKPMESLWSTAPPPAMAPSPQSTMAPAPAPQQMAPLQPILSMQDLERQQRQMQQQFMNFHAMGHPQGLPQGPPQQQFPMQPASGQPGPSQFAPPPPPPGVNVNMNQMPMGPVQVPVQASPSPIGMSNTPSPGPVVGATKMPLQSGRRSKRDLSPEEQRRLQIRHAKVEKILKYSGLMTPRDKDFITRYQLSQIVTEDPYNEDFYFQVYKIIQRGGITSESNKGLIARAYLEHSGHRLGGRYKRTDIALQRMQSQVEKAVTVAKERPSKLKDQQAAAGNSSQDNKQANTVLGKISSTLNSKNPRRQLQIPRQQPSDPDALKDVTDSLTNVDLASSGSSSTGSSAAAVASKQRRRSSYAFNNGNGATNLNKSGGKKFILELIETVYEEILDLEANLRNGQQTDSTAMWEALHIDDSSYDVNPFISMLSFDKGIKIMPRIFNFLDKQQKLKILQKIFNELSHLQIIILSSYKTTPKPTLTQLKKVDLFQMIILKIIVSFLSNNSNFIEIMGLLLQLIRNNNVSFLTTSKIGLNLITILISRAALIKQDSSRSNILSSPEISTWNEIYDKLFTSLESKIQLIFPPREYNDHIMRLQNDKFMDEAYIWQFLASLALSGKLNHQRIIIDEVRDEIFATINEAETLQKKEKELSVLPQRSQELDTELKSIIYNKEKLYQDLNLFLNVMGLVYRDGEISELK

Experiments:
[1] = molecular target: B2; experiment: pull-down
[2] = molecular target: FLAG-tagged Xrn1 (wild type) (S. cerevisiae, UniProt P22147 1-1528); experiment: pull-down
Sequence of FLAG-tagged Xrn1 (wild type) (P22147 whole entry): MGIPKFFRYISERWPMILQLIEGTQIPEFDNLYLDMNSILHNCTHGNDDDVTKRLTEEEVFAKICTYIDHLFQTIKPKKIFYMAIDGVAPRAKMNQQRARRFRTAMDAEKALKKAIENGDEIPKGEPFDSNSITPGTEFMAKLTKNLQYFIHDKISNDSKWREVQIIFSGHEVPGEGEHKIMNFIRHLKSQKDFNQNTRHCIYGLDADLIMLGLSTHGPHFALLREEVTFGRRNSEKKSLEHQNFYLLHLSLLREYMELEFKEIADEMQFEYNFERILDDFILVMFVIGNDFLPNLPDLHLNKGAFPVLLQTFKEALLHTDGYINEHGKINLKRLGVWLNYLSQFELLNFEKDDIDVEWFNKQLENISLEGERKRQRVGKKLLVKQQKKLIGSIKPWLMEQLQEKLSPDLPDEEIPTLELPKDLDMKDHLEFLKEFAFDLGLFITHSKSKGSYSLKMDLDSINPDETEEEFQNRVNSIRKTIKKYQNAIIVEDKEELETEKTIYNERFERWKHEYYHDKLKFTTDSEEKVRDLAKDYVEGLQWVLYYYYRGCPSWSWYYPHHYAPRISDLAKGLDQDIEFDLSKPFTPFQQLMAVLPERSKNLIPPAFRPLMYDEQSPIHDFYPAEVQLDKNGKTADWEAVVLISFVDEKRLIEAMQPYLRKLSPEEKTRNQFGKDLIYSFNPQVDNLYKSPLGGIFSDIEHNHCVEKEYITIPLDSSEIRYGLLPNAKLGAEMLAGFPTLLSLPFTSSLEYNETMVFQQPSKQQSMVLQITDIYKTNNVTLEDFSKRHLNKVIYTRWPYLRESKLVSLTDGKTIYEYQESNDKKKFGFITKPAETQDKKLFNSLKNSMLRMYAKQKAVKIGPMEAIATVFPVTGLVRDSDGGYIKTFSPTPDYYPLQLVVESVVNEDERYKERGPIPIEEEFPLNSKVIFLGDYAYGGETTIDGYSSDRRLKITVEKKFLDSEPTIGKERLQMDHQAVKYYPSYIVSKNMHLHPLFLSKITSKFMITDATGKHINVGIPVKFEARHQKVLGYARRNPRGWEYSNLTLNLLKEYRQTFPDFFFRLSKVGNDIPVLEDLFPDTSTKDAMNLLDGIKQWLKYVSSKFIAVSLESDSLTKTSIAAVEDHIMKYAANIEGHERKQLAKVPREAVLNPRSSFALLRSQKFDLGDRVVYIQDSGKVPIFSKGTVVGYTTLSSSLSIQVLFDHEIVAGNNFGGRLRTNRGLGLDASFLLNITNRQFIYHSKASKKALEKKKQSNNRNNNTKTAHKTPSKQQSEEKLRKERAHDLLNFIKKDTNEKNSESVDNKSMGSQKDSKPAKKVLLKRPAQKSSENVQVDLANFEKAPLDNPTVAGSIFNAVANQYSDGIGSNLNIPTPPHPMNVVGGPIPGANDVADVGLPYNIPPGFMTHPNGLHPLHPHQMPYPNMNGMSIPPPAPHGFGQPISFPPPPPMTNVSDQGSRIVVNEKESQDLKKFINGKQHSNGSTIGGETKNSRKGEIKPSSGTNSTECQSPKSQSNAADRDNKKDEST

[3] = molecular target: T1, TAP-tagged Kap120 (S. cerevisiae, UniProt Q02932 1-1032); experiment: co-IP
T1 sequence (looked up): B2 chain

## FLAG-tagged Xrn1^ΔNLS1/2 (from UniProt P22147 1-1528) (enzyme)
[1]
  fold weaker than Xrn1^WT-Kap120: 4.5 fold

## B1
[1]
  binding result: binds

## B2
[2]
  binding result: binds

## B3
[3]
  fold reduction of the co-IP in Xrn1^ΔNLS1/2 cells against WT cells: ~5 fold

## B4
[3]
  fold reduction of the co-IP in Xrn1^ΔNLS1/2 cells against WT cells: ~5 fold
